Assay results from IntAct's records for PubMed 11102519.

B1: Transmembrane 4 L6 family member 1 (Homo sapiens), P30408 (parent)
chain: MCYGKCARCIGHSLVGLALLCIAANILLYFPNGETKYASENHLSRFVWFFSGIVGGGLLMLLPAFVFIGLEQDDCCGCCGHENCGKRCAMLSSVLAALIGIAGSGYCVIVAALGLAEGPLCLDSLGQWNYTFASTEGQYLLDTSTWSECTEPKHIVEWNVSLFSILLALGGIEFILCLIQVINGVLGGICGFCCSHQQQYDC
partner: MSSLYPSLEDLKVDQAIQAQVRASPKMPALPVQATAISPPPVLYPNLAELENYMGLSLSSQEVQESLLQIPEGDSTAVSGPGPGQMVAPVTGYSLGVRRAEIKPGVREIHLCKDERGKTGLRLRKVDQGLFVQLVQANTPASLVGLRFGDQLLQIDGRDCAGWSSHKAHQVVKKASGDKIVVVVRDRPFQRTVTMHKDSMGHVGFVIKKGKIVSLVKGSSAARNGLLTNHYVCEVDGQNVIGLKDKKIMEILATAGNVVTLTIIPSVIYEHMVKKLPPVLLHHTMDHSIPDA

Variants of: B1
Conditions: with sdcb2_human SDCBP2, Q9H190

Variant | effect of a mutation on the interaction
MCYGKCARCIGHSLVGLALLCIAANILLYFPNGETKYASENHLSRFVWFFSGIVGGGLLMLLPAFVFIGLEQDDCCGCCGHENCGKRCAMLSSVLAALIGIAGSGYCVIVAALGLAEGPLCLDSLGQWNYTFASTEGQYLLDTSTWSECTEPKHIVEWNVSLFSILLALGGIEFILCLIQVINGVLGGICGFCCSHQQQYDG [C202G] | disrupting interaction strength
